In patent US10464978B2, “Peptides and combination of peptides for use in immunotherapy against ovarian cancer and other cancers” (immatics biotechnologies GmbH, priority 2015, dated 2019):

biological target: HLA-A*02:01 (Homo sapiens, UniProt P04439, D140Y/D185E/D98H/E176V/E277Q/G131W/G231S/I119V/I121R/I166T/I218V/L300P/L318F/N151K/N90K/P208A/P217A/Q86G/Q94H/R138H/R169H/T345S); test: MHC binding assay: UV-ligand exchange with beta2m ELISA (peptide exchange yield); settings: binding to HLA-A*02:01
Outline: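 Peptide-MHC complexes formed by UV-ligand exchange, a UV-cleavable peptide being replaced by the candidate peptide. Exchange products diluted 100-fold, captured on streptavidin-coated plates for 1h at 37° C, then detected with 2 ug/ml HRP anti-β2m (1h, 37° C) and TMB, absorbance 450 nm; value is exchange yield.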

| Substance | Peptide exchange (MHC class I binding score, peptide exchange yield) |
| --- | --- |
| 559 (VTVPPGPSL; listed as Homo sapiens) [compound 559] | “++” (≥20% = ++) |
| 463 (SLVESHLSDQLTL; listed as Homo sapiens) [compound 463] | “+++” (≥50 = +++) |
| 400 (SLLTEQDLWTV; listed as Homo sapiens) [compound 400] | “++” (≥20% = ++) |
| 234 (ALMEDTGRQML; listed as Homo sapiens) [compound 234] | “++” (≥20% = ++) |
| 69 (FQLDPSSGVLVTV; listed as Homo sapiens) [compound 69] | “+++” (≥50 = +++) |
| 300 (ALLGQTFSL; listed as Homo sapiens) [compound 300] | “+++” (≥50 = +++) |
| 438 (KLLPLAGLYL; listed as Homo sapiens) [compound 438] | “++++” (≥75% = ++++) |
| 333 (FLPDANSSV; listed as Homo sapiens) [compound 333] | “++” (≥20% = ++) |
| 565 (ALQETPTSV; listed as Homo sapiens) [compound 565] | “++” (≥20% = ++) |
| 67 (TLLAEALVTV; listed as Homo sapiens) [compound 67] | “+++” (≥50 = +++) |
| 199 (ALQDVPLSSV; listed as Homo sapiens) [compound 199] | “+++” (≥50 = +++) |
| 388 (SLTIDGIRYV; listed as Homo sapiens) [compound 388] | “+++” (≥50 = +++) |
| 27 (ILADIVISA; listed as Homo sapiens) [compound 27] | “+++” (≥50 = +++) |
| 528 (SVAEGRALMSV; listed as Homo sapiens) [compound 528] | “+++” (≥50 = +++) |
| 109 (IILSILEQA; listed as Homo sapiens) [compound 109] | “++++” (≥75% = ++++) |
| 272 (ALGNTVPAV; listed as Homo sapiens) [compound 272] | “+++” (≥50 = +++) |
| 610 (LLAPTPYIIGV; listed as Homo sapiens) [compound 610] | “+++” (≥50 = +++) |
| 146 (SLATAGDGLIEL; listed as Homo sapiens) [compound 146] | “++” (≥20% = ++) |
| 607 (RLYSGISGLEL; listed as Homo sapiens) [compound 607] | “+++” (≥50 = +++) |
| 449 (KLAEGLDIQL; listed as Homo sapiens) [compound 449] | “+++” (≥50 = +++) |
| 426 (RLADKSVLV; listed as Homo sapiens) [compound 426] | “+++” (≥50 = +++) |
| 490 (FLLQHVQEL; listed as Homo sapiens) [compound 490] | “+++” (≥50 = +++) |
| 38 (FLLEDDIHVS; listed as Homo sapiens) [compound 38] | “+++” (≥50 = +++) |

| Substance | Peptide exchange (MHC class I binding score, peptide exchange yield) |
| --- | --- |
| 472 (KLLEVSDDPQV; listed as Homo sapiens) [compound 472] | “+++” (≥50 = +++) |
| 488 (FLAEDPKVTL; listed as Homo sapiens) [compound 488] | “+++” (≥50 = +++) |
| 310 (FLVDTPLARA; listed as Homo sapiens) [compound 310] | “++++” (≥75% = ++++) |
| 150 (RLWEEGEELEL; listed as Homo sapiens) [compound 150] | “+++” (≥50 = +++) |
| 476 (ALMERTGYSMV; listed as Homo sapiens) [compound 476] | “+++” (≥50 = +++) |
| 239 (AAFAGKLLSV; listed as Homo sapiens) [compound 239] | “+++” (≥50 = +++) |
| 225 (SLLKVLPAL; listed as Homo sapiens) [compound 225] | “+++” (≥50 = +++) |
| 601 (SAFPFPVTV; listed as Homo sapiens) [compound 601] | “+++” (≥50 = +++) |
| 447 (QLVPALAKV; listed as Homo sapiens) [compound 447] | “++” (≥20% = ++) |
| 275 (YLVYILNEL; listed as Homo sapiens) [compound 275] | “++” (≥20% = ++) |
| 430 (HLYSSIEHLTT; listed as Homo sapiens) [compound 430] | “+++” (≥50 = +++) |
| 183 (FGLDLVTEL; listed as Homo sapiens) [compound 183] | “+++” (≥50 = +++) |
| 125 (VQIHQVAQV; listed as Homo sapiens) [compound 125] | “+++” (≥50 = +++) |
| 256 (FLPPEHTIVYI; listed as Homo sapiens) [compound 256] | “+++” (≥50 = +++) |
| 314 (ALIAEGIALV; listed as Homo sapiens) [compound 314] | “+++” (≥50 = +++) |
| 578 (FLDPGGPMMKL; listed as Homo sapiens) [compound 578] | “+++” (≥50 = +++) |
| 117 (ILPDGEDFLAV; listed as Homo sapiens) [compound 117] | “+++” (≥50 = +++) |
| 318 (GLINTGVLSV; listed as Homo sapiens) [compound 318] | “++” (≥20% = ++) |
| 160 (FLFDEEIEQI; listed as Homo sapiens) [compound 160] | “+++” (≥50 = +++) |
| 560 (ALWDIETGQQTTT; listed as Homo sapiens) [compound 560] | “+++” (≥50 = +++) |
| 10 (FLATFPLAAV; listed as Homo sapiens) [compound 10] | “++++” (≥75% = ++++) |
| 113 (GLLPTPLFGV; listed as Homo sapiens) [compound 113] | “+++” (≥50 = +++) |

Now from value to substance:

| Peptide exchange (MHC class I binding score, peptide exchange yield) | Substance |
| --- | --- |
| “++” (≥20% = ++) | 461 (VMFRTPLASV; listed as Homo sapiens) [compound 461] |
| “+++” (≥50 = +++) | 302 (ALLQEGEVYSA; listed as Homo sapiens) [compound 302] |
| “+++” (≥50 = +++) | 604 (SILDRDDIFV; listed as Homo sapiens) [compound 604] |
| “++” (≥20% = ++) | 15 (VLLTFKIFL; listed as Homo sapiens) [compound 15] |
| “++” (≥20% = ++) | 232 (ALLEAQDVELYL; listed as Homo sapiens) [compound 232] |
| “++” (≥20% = ++) | 363 (KVLDVSDLESV; listed as Homo sapiens) [compound 363] |
| “+++” (≥50 = +++) | 481 (GLIEDYEALL; listed as Homo sapiens) [compound 481] |
| “+++” (≥50 = +++) | 399 (YLFEPLYHV; listed as Homo sapiens) [compound 399] |
| “++” (≥20% = ++) | 429 (GLVNDLARV; listed as Homo sapiens) [compound 429] |
| “+++” (≥50 = +++) | 312 (IISDLTIAL; listed as Homo sapiens) [compound 312] |
| “+++” (≥50 = +++) | 102 (YLFESEGLVL; listed as Homo sapiens) [compound 102] |
| “+++” (≥50 = +++) | 246 (LLWEVVSQL; listed as Homo sapiens) [compound 246] |
| “+++” (≥50 = +++) | 341 (SQIALNEKLVNL; listed as Homo sapiens) [compound 341] |
| “+++” (≥50 = +++) | 41 (SLMPHIPGL; listed as Homo sapiens) [compound 41] |
| “++” (≥20% = ++) | 494 (ALQPEPIKV; listed as Homo sapiens) [compound 494] |
| “+++” (≥50 = +++) | 452 (ILLEHGADPNL; listed as Homo sapiens) [compound 452] |
| “++” (≥20% = ++) | 229 (RLPGPLGTV; listed as Homo sapiens) [compound 229] |
| “+++” (≥50 = +++) | 509 (FLFDTKPLIV; listed as Homo sapiens) [compound 509] |
| “+++” (≥50 = +++) | 351 (SLIPNLRNV; listed as Homo sapiens) [compound 351] |
| “+++” (≥50 = +++) | 147 (SLLEAVSFL; listed as Homo sapiens) [compound 147] |
| “+++” (≥50 = +++) | 202 (ALLDQQGSRWTL; listed as Homo sapiens) [compound 202] |
